Measurements from publication PMC3327674, “Structural and Functional Characterization of Mature Forms of Metalloprotease E495 from Arctic Sea-Ice Bacterium Pseudoalteromonas sp. SM495” (PLoS ONE, 2012).

Tests used:
[1] = target: C-phycocyanin (Synechocystis sp. strain PCC6803) (UniProt Q54715); experiment: SPR; BIACORE 3000, 25°C; CPC amine-coupled on a CM5 chip; PPC domains 0.25-8 µM at 30 µl/min; regeneration with 20 mM NaOH; global fits, BIAevaluation 4.1
[2] = target: GST-fused PPC12 (PPC1 and PPC2 domains) of metalloprotease E495 (Pseudoalteromonas sp. SM495); experiment: pull-down; GST-fused PPC domain (or mutant) attached to glutathione-agarose resin; 0.1 mg/ml CPC or casein added, 4°C, 12 h with shaking; substrate remaining in the supernatant analysed by 12.5% SDS-PAGE and ImageJ
[3] = target: GST-fused PPC1 domain of metalloprotease E495 (Pseudoalteromonas sp. SM495); experiment: as above
[4] = target: GST-fused PPC2 domain of metalloprotease E495 (Pseudoalteromonas sp. SM495); experiment: as above

Chain of C-phycocyanin (Synechocystis sp. strain PCC6803) (Q54715 whole entry, chain 1 of 2, other chains not shown, the tested form may be a part): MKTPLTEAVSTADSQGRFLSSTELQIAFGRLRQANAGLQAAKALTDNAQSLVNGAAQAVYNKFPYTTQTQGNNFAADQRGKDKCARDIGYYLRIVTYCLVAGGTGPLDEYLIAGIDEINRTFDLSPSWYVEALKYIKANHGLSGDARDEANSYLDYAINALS

Row | Substance | K m of α-casein hydrolysis at 50°C (non-linear fit, Michaelis-Menten) (alpha casein) | Kd [1] | koff [1] | kon [1] | percent bound [2] | percent bound [3] | percent bound [4]
1 | GST-fused PPC1 domain of metalloprotease E495 (domain or fragment) | – | 0.77 µM | 0.0158 s⁻¹ | 20400 M⁻¹ s⁻¹ | – | – | –
2 | alpha casein (natural protein) | – | – | – | – | 30% | 30% | 30%
3 | GST-fused PPC2 domain of metalloprotease E495 (domain or fragment) | – | 2.47 µM | 0.0162 s⁻¹ | 6560 M⁻¹ s⁻¹ | – | – | –

Results, then the substance that gave them:

Row | K m of α-casein hydrolysis at 50°C (non-linear fit, Michaelis-Menten) (alpha casein) | Kd [1] | koff [1] | kon [1] | percent bound [2] | percent bound [3] | percent bound [4] | Substance
4 | 18 µM | – | – | – | – | – | – | E495-M-C1 (mature form of metalloprotease E495 containing the catalytic domain and the PPC1 domain) (enzyme)
5 | 67 µM | – | – | – | – | – | – | E495-M (mature form of metalloprotease E495 containing only the catalytic domain) (enzyme)
6 | – | – | – | – | 30% | 30% | 30% | C-phycocyanin (from UniProt Q54715 1-162; Q54714 1-172) (complex)
